# Experimental data as given in paper PMC5653232.
# Biological target: H3K9Cme3-NCP (fluorescein-labelled DNA, unlabelled wild type H2A) (human) (UniProt P0C0S8)
# Experiment: fluorescence polarisation
# Sequence of CHD3 PHD1/2 (373–508) (Q12873 373-508): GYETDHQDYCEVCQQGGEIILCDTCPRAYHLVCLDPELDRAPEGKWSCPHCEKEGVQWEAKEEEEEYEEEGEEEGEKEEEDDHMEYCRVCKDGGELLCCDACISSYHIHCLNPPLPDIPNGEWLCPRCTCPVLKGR
substance,measurement,value
CHD3 PHD1/2 (373–508) (from UniProt Q12873 373-508) (domain or fragment),Kd,1.4 µM
